Patent US6361968

Columns and labels:
[1] = CD thermal melts, homodimer
P05412 = assay: thermal melt, homodimer (FIG. 4)
P16220 = assay: thermal melt, homodimerization (FIG. 3)

B1: C/EBP bZIP domain (GCN4-C/EBP chimeric protein) (protein)
chain: SEYQPSLFALNPMGFSPLDGSKSTNENVSASTSTAKPMVGQLIFDKFIKTEEDPGKAKKSVDKNSNEYRVRRERNNIAVRKSRDKAKQRNVETQQKVLELTSDNDRLRKRVEQLSRELDTLRGIFRQLPESSLVKAMGNCA
Q: Which “Tm decrease in 50 mM KCl against 150 mM KCl” value [1] does the source give for B1 here?
A: Its value is “less stable by 4 °C in 50 mM KCl compared with 150 mM KCl”.

B2: c-Jun (unmodified) (protein)
chain: PLSPIDMESQERIKAERKRMRNRIAASKCRKRKLERIARLEEKVKTLKAQNSELASTANMLREQVAQLKQKVMNHVNSGCQLMLTQQLQTF
Q: Which Tm (P05412) does the source give for B2 here?
A: Its Tm is “homodimerization of unmodified c-Jun had a melting temperature of 29.4 °C”.

B3: CREB (unmodified) (protein)
chain: MASSPALPTQPAEEAARKREVRLMKNREAARECRRKKKEYVKCLENRVAVLENQNKTLIEELKALKDLYCHKSD
Q: With B3 as the protein, how does the Tm (P16220) read?
A: The Tm was “Tm=47 °C”.
